From patent EP4588489A1, “LINKER FOR ANTIBODY-DRUG CONJUGATE AND USE THEREOF” (priority 2022, dated 2024)
Substitutions are numbered along the chain they refer to.

T1: TROP2 (UniProt P09758 27-323, limits assumed)
T1 sequence (looked up): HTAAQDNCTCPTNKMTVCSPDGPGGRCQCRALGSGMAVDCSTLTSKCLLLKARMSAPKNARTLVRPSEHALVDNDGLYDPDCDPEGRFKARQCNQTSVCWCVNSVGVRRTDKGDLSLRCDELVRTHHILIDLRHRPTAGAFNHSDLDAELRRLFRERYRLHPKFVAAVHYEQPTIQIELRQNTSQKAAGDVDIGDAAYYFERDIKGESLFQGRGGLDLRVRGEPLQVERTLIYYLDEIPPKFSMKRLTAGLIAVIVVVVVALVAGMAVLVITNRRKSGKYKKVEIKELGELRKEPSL

T2: BCMA (UniProt Q02223 1-184, limits assumed)
T2 sequence (looked up): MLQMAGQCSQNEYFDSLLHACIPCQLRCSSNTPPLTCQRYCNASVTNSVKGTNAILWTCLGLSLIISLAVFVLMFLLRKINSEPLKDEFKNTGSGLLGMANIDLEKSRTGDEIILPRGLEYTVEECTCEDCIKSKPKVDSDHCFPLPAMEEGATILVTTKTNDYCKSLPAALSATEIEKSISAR

B1: hRS7-CPT004-D4 (antibody, human IgG1, kappa, V domains shown)
VH: QVQLQQSGSELKKPGASVKVSCKASGYTFTNYGMNWVKQAPGQGLKWMGWINTYTGEPTYTDDFKGRFAFSLDTSVSTAYLQISSLKADDTAVYFCARGGFGSSYWYFDVWGQGSLVTVSS
VL: DIQLTQSPSSLSASVGDRVSITCKASQDVSIAVAWYQQKPGKAPKLLIYSASYRYTGVPDRFSGSGSGTDFTLTISSLQPEDFAVYYCQQHYITPLTFGAGTKVEIKR
modifications: linker-drug CPT004 on cysteines of reduced interchain disulfides; label D4
B2: hRS7-CL2A-SN38-D8 (antibody, human IgG1, kappa, V domains shown)
VH: B1 VH
VL: B1 VL
modifications: CL2A-SN38 on cysteines of reduced interchain disulfides; label D8
B3: hRS7-CPT009-D4 (antibody, human IgG1, kappa, V domains shown)
VH: B1 VH
VL: B1 VL
modifications: linker-drug CPT009 on cysteines of reduced interchain disulfides; label D4
B4: hRS7-CPT006-D4 (antibody, human IgG1, kappa, V domains shown)
VH: B1 VH
VL: B1 VL
modifications: linker-drug CPT006 on cysteines of reduced interchain disulfides; label D4
B5: DXD (deruxtecan)-conjugated sacituzumab (hRS7-DXD) (antibody, human IgG1, kappa, V domains shown)
VH: B1 VH
VL: B1 VL
modifications: deruxtecan (DXD) on cysteines of reduced interchain disulfides; label D4
B6: hRS7-SN38-D8 (antibody, human IgG1, kappa, V domains shown)
VH: B1 VH
VL: B1 VL
modifications: comp.5-linked SN38 on cysteines of reduced interchain disulfides; label D8
B7: hRS7-CPT005-D4 (antibody, human IgG1, kappa, V domains shown)
VH: B1 VH
VL: B1 VL
modifications: linker-drug CPT005 on cysteines of reduced interchain disulfides; label D4
B8: hRS7-CPD6-NC-D4 (antibody, human IgG1, kappa, V domains shown)
VH: B1 VH
VL: B1 VL
modifications: linker-drug CPD6 on cysteines of reduced interchain disulfides; label D4
B9: hRS7-CPD4-NC-D4 (antibody, human IgG1, kappa, V domains shown)
VH: B1 VH
VL: B1 VL
modifications: linker-drug CPD4 on cysteines of reduced interchain disulfides; label D4
B10: hRS7-CPD5-NC-D4 (antibody, human IgG1, kappa, V domains shown)
VH: B1 VH
VL: B1 VL
modifications: linker-drug CPD5 on cysteines of reduced interchain disulfides; label D4
B11: hRS7-CPD1-NC-D4 (antibody, human IgG1, kappa, V domains shown)
VH: B1 VH
VL: B1 VL
modifications: linker-drug CPD1 on cysteines of reduced interchain disulfides; label D4
B12: hRS7-CPD2-NC-D4 (antibody, human IgG1, kappa, V domains shown)
VH: B1 VH
VL: B1 VL
modifications: linker-drug CPD2 on cysteines of reduced interchain disulfides; label D4
B13: hRS7-CPD3-NC-D4 (antibody, human IgG1, kappa, V domains shown)
VH: B1 VH
VL: B1 VL
modifications: linker-drug CPD3 on cysteines of reduced interchain disulfides; label D4
B14: anti-BCMA-005-Hu178-CPD-D4 (antibody, human IgG1, kappa, V domains shown)
VH: EVQLVESGGGLVKPGGSLRLSCAASGFTFSNFDMAWVRQAPGKGLEWVASIVTRGDDTYYRDSVRGRFTISRDNAKNTQYLQMNSLRAEDTAVYYCARHDYGGPSGWFGYWGQGTLVTVSS
VL: DIQMTQSPSSLSASVGDRVTITCRASQGFSNNLNWYQQKPGKTPKPLIYYTSNLHSGVPSRFSGSGSGTDYSLTISSLQPEDFATYYCQQDASFPPTFGQGTKLEIKR
modifications: linker-drug CPD1 on cysteines of reduced interchain disulfides; HIC-DAR 4.24
B15: anti-BCMA-005-Hu178-CPD-D8 (antibody, human IgG1, kappa, V domains shown)
VH: B14 VH
VL: B14 VL
modifications: linker-drug CPD1 on cysteines of reduced interchain disulfides; HIC-DAR 7.73
B16: anti-BCMA-005-Hu178-vcMMAE-D4 (antibody, human IgG1, kappa, V domains shown)
VH: B14 VH
VL: B14 VL
modifications: vc-MMAE on cysteines of reduced interchain disulfides; HIC-DAR 3.78
B17: hRS7-C9-D4 (antibody, human IgG1, kappa, V domains shown)
VH: B1 VH
VL: B1 VL
modifications: linker-drug comp9 on cysteines of reduced interchain disulfides; DAR 3.54
B18: hRS7-C7-D4 (antibody, human IgG1, kappa, V domains shown)
VH: B1 VH
VL: B1 VL
modifications: linker-drug comp7 on cysteines of reduced interchain disulfides; DAR 3.56
B19: hRS7-C8-D4 (antibody, human IgG1, kappa, V domains shown)
VH: B1 VH
VL: B1 VL
modifications: linker-drug comp8 on cysteines of reduced interchain disulfides; DAR 3.52
B20: hRS7-C6-D4 (antibody, human IgG1, kappa, V domains shown)
VH: B1 VH
VL: B1 VL
modifications: linker-drug comp6 on cysteines of reduced interchain disulfides; DAR 3.49
B21: ADC01 (Datopotamab conjugated to GGFG-Dxd) (antibody, human IgG1, kappa, V domains shown)
VH: QVQLVQSGAEVKKPGASVKVSCKASGYTFTTAGMQWVRQAPGQGLEWMGWINTHSGVPKYAEDFKGRVTISADTSTSTAYLQLSSLKSEDTAVYYCARSGFGSSYWYFDVWGQGTLVTVSS
VL: B1 VL with L4M, S20T, I31T, D60S, A100Q, V104L
modifications: linker-drug GGFG-Dxd on cysteines of reduced interchain disulfides; average DAR 3.73
B22: ADC04 (hRS7 conjugated to CPD2) (antibody, human IgG1, kappa, V domains shown)
VH: B1 VH
VL: B1 VL
modifications: linker-drug CPD2 on cysteines of reduced interchain disulfides; average DAR 3.92
B23: ADC03 (hRS7 conjugated to CPD1) (antibody, human IgG1, kappa, V domains shown)
VH: B1 VH
VL: B1 VL
modifications: linker-drug CPD1 on cysteines of reduced interchain disulfides; average DAR 3.82
B24: ADC02 (hRS7 conjugated to GGFG-Dxd) (antibody, human IgG1, kappa, V domains shown)
VH: B1 VH
VL: B1 VL
modifications: linker-drug GGFG-Dxd on cysteines of reduced interchain disulfides; average DAR 3.69
B25: ADC05 (hRS7 conjugated to CPD3) (antibody, human IgG1, kappa, V domains shown)
VH: B1 VH
VL: B1 VL
modifications: linker-drug CPD3 on cysteines of reduced interchain disulfides; average DAR 3.99
B26: anti-BCMA-005-Hu178-glucoseMMAE-NC-D4 (antibody, human IgG1, kappa, V domains shown)
VH: B14 VH
VL: B14 VL
modifications: Linker-MMAE derivative 1 on cysteines of reduced interchain disulfides; HIC-DAR 3.73
B27: anti-BCMA-005-Hu178-OMeMMAE-D4 (antibody, human IgG1, kappa, V domains shown)
VH: B14 VH
VL: B14 VL
modifications: Linker-MMAE derivative 2 on cysteines of reduced interchain disulfides; HIC-DAR 3.79
B28: anti-BCMA-005-Hu178-vcMMAF-D4 (antibody, human IgG1, kappa, V domains shown)
VH: B14 VH
VL: B14 VL
modifications: vc-MMAF on cysteines of reduced interchain disulfides; HIC-DAR 3.86

target: T1, TROP2; assay: cell-based or functional assay

Row | Binder | EC50(nM), inhibition of BxPC-3 cell proliferation [nM] | Relative activity (%), inhibition of BxPC-3 cell proliferation [%]
1 | B1 | 0.144 | 109
2 | B2 | 0.259 | 100
3 | B3 | 0.353 | 50.7
4 | B4 | 0.259 | 60.4
5 | B5 | 0.156 | 100
6 | B6 | 6.46 | 
7 | B7 | 0.101 | 155

target: T1, TROP2; assay: cell-based or functional assay; remark: another data set of the same source

Row | Binder | EC50(nM), inhibition of BxPC-3 cell proliferation [nM] | Relative activity (%), inhibition of BxPC-3 cell proliferation [%]
8 | B8 | 0.341 | 111
9 | B9 | 0.424 | 89.6
10 | B10 | 0.478 | 79.6
11 | B11 | 0.468 | 103
12 | B12 | 0.327 | 147
13 | B5 | 0.38 | 100
14 | B13 | 0.309 | 156

target: T2, BCMA; assay: cell-based or functional assay

Row | Binder | EC50(nM), inhibition of MM.1S cell proliferation [nM]
15 | B14 | 12.2
16 | B15 | 4.56
17 | B16 | 2.3

target: T1, TROP2; assay: cell-based or functional assay; remark: another data set of the same source

Row | Binder | EC50(nM), inhibition of BxPC-3 cell proliferation [nM] | Relative activity (%), inhibition of BxPC-3 cell proliferation [%]
18 | B17 | 0.377 | 108
19 | B18 | 0.305 | 103
20 | B19 | 0.323 | 97
21 | B5 |  | 100
22 | B20 | 0.393 | 80

target: T1, TROP2; assay: cell-based or functional assay; remark: another data set of the same source

Row | Binder | A431 IC50/µg/mL (in vitro cell viability assay) [µg/mL]
23 | B21 | 0.11
24 | B22 | 0.048
25 | B23 | 0.074
26 | B24 | 0.057
27 | B25 | 0.024

target: T2, BCMA; assay: cell-based or functional assay; remark: another data set of the same source

Row | Binder | EC50(nM), inhibition of MM.1S cell proliferation [nM] | Relative activity (%), inhibition of MM.1S cell proliferation [%]
28 | B26 | 2.15 | 86.8
29 | B27 | 2.42 | 77.1
30 | B16 | 1.87 | 100
31 | B28 | 1.12 | 166
